Data as given in paper PMC12221368, “Long AKAP18 isoforms anchor ubiquitin specific proteinases and coordinate calcium reuptake at the sarcoplasmic reticulum” (The Journal of Biological Chemistry, 2025).

Key:
[1] = target: GFP-AKAP18γ (UniProt Q9P0M2)
[2] = target: GFP-AKAP18δ (UniProt Q6JP77 1-353); assay: cell-based or functional assay
Sequence of GFP-AKAP18δ (Q6JP77 whole entry, stated change not applied): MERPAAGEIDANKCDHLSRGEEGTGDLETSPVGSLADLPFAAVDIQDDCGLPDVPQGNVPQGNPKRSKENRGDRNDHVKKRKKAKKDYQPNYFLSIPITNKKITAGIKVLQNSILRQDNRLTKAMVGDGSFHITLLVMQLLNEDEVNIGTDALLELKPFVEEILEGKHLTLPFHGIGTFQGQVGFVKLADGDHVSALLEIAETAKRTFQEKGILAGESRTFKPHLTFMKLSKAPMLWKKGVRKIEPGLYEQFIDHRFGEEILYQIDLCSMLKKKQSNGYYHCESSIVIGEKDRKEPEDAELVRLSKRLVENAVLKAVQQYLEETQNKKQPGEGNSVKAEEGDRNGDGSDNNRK

Sequence of GFP-AKAP18γ (Q9P0M2 whole entry): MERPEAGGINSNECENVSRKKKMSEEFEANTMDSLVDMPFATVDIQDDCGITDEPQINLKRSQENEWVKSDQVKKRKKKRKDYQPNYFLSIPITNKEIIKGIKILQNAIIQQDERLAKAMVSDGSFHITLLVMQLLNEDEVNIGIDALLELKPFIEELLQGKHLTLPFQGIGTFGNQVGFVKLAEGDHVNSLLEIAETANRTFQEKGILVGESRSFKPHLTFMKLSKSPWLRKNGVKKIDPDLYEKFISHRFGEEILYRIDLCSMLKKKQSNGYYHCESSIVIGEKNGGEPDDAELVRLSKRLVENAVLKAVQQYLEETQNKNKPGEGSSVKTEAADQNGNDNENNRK

B1: V5-tagged USP4 (enzyme, UniProt Q13107 1-963, looked up)
chain: MAEGGGCRERPDAETQKSELGPLMRTTLQRGAQWYLIDSRWFKQWKKYVGFDSWDMYNVGEHNLFPGPIDNSGLFSDPESQTLKEHLIDELDYVLVPTEAWNKLLNWYGCVEGQQPIVRKVVEHGLFVKHCKVEVYLLELKLCENSDPTNVLSCHFSKADTIATIEKEMRKLFNIPAERETRLWNKYMSNTYEQLSKLDNTVQDAGLYQGQVLVIEPQNEDGTWPRQTLQSKSSTAPSRNFTTSPKSSASPYSSVSASLIANGDSTSTCGMHSSGVSRGGSGFSASYNCQEPPSSHIQPGLCGLGNLGNTCFMNSALQCLSNTAPLTDYFLKDEYEAEINRDNPLGMKGEIAEAYAELIKQMWSGRDAHVAPRMFKTQVGRFAPQFSGYQQQDSQELLAFLLDGLHEDLNRVKKKPYLELKDANGRPDAVVAKEAWENHRLRNDSVIVDTFHGLFKSTLVCPECAKVSVTFDPFCYLTLPLPLKKDRVMEVFLVPADPHCRPTQYRVTVPLMGAVSDLCEALSRLSGIAAENMVVADVYNHRFHKIFQMDEGLNHIMPRDDIFVYEVCSTSVDGSECVTLPVYFRERKSRPSSTSSASALYGQPLLLSVPKHKLTLESLYQAVCDRISRYVKQPLPDEFGSSPLEPGACNGSRNSCEGEDEEEMEHQEEGKEQLSETEGSGEDEPGNDPSETTQKKIKGQPCPKRLFTFSLVNSYGTADINSLAADGKLLKLNSRSTLAMDWDSETRRLYYDEQESEAYEKHVSMLQPQKKKKTTVALRDCIELFTTMETLGEHDPWYCPNCKKHQQATKKFDLWSLPKILVVHLKRFSYNRYWRDKLDTVVEFPIRGLNMSEFVCNLSARPYVYDLIAVSNHYGAMGVGHYTAYAKNKLNGKWYYFDDSNVSLASEDQIVTKAAYVLFYQRRDDEFYKTPSLSSSGSSDGGTRPSSSQQGFGDDEACSMDTN
- deubiquitinase activity (Ub-AMC fluorescent assay) in GFP immune complexes, fold over IgG controls, n = 3 [1]: 7.5 fold
- deubiquitinase activity (Ub-AMC fluorescent assay) in GFP immune complexes, fold over IgG controls, n = 3 [2]: 9.2 fold
